Experiments:
[1] = target: T1, Kucore (Bacillus subtilis, UniProt O34859 1-253); assay: SPR
T1 sequence: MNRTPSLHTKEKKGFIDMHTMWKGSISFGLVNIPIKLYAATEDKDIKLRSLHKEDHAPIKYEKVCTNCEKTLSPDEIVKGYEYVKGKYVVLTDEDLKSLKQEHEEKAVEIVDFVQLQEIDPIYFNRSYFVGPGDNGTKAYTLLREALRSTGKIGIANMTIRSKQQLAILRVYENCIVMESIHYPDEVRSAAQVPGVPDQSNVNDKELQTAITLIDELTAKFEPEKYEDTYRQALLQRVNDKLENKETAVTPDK

[2] = target: T2, Kuwt (Bacillus subtilis, UniProt O34859 1-311); assay: SPR
T2 sequence: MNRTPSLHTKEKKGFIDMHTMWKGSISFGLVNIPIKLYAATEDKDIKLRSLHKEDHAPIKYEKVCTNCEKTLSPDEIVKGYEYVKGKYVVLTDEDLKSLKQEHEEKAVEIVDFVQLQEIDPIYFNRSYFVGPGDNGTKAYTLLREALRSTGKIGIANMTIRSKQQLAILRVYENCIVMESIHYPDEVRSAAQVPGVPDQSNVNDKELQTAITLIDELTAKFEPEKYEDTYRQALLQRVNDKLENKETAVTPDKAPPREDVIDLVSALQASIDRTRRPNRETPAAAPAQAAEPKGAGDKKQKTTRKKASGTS

[3] = target: T3, Kuwt;LigD (Bacillus subtilis;Bacillus subtilis, UniProt O34859;O34398 1-311;1-611, |); assay: EMSA
T3 sequence 1: T2 sequence
T3 sequence 2: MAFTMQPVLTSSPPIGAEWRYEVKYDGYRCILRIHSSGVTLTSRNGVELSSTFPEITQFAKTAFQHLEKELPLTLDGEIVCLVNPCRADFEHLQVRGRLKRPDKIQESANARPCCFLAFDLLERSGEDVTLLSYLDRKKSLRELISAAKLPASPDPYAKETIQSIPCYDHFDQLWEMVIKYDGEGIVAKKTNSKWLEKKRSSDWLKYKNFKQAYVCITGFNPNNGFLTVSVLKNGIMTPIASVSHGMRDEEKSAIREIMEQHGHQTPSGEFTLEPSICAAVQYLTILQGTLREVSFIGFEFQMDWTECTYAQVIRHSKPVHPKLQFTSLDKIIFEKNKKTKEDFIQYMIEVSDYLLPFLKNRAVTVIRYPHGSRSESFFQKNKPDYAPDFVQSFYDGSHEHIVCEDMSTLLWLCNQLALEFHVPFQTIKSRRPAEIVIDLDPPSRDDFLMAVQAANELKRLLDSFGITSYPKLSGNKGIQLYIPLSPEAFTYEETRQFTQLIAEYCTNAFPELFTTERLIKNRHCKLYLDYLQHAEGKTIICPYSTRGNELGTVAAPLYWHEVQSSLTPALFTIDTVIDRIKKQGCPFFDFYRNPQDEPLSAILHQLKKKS

[4] = target: T1, Kucore; assay: EMSA
[5] = target: T2, Kuwt; assay: EMSA

B1: 50 bp blunt DNA (SPR) (dsDNA)
DNA 1: CCTCTAGACCTGTACTACTCGAGAGATCGATCGACAGACGATGACTTAGC
DNA 2: GCTAAGTCATCGTCTGTCGATCGATCTCTCGAGTAGTACAGGTCTAGAGG
modifications: 5' biotin on one strand
- Kd [1]: 9.3 nM
- Kd [2]: 6.7 nM

B2: 50 bp blunt DNA (EMSA, photobleaching) (dsDNA)
DNA 1: B1 DNA 1
DNA 2: B1 DNA 2
modifications: 5' 6-FAM on one strand (EMSA)
- binding result [3]: binds

B3: 50 bp DNA with 4 nt overhang (dsDNA)
DNA 1: B1 DNA 1
DNA 2: CTGAGCTAAGTCATCGTCTGTCGATCGATCTCTCGAGTAGTACAGGTCTAGAGG
modifications: 5' 6-FAM on one strand
- binding result [4]: binds
- binding result [5]: binds
